Data set [1] concerns the target T1, RecG (WT) (Escherichia coli, UniProt P24230).
T1 construct: RecG was expressed in STL2669/pT7pol26 (a gift from Dr Susan Lovett, Brandeis University) with overexpression plasmid pEAW111; made in house; host or cells: E. coli STL2669/pT7pol26
The data set is described as follows: Fluorescence anisotropy binding of 6-FAM-labelled SSB peptides to wildtype RecG. Set-up: species or system E. coli. The method, then:
SSB peptides (sequences listed in Figure 2) were designed with an N-terminal tryptophan residue for quantification and N-terminal 6-FAM label (Genscript). RecG was incubated with 0.2 M potassium glutamate, 1 mM DTT, 0.1 μg/ml BSA, 1 × RecA buffer (25 mM Tris-acetate, pH 7.6, 5% w/v glycerol, 3 mM potassium glutamate, 10 mM magnesium acetate, 1 mM DTT), and 10 nM labeled peptide at room temperature for 30 min. Fluorescence polarization (FP) values were measured at 25°C using a Beacon 2000 Fluorescence Polarization System. Polarization values were normalized to the FP value measured at 0 nM RecG. Normalized FP was converted to normalized anisotropy. Experiments were performed in triplicate, and the data were fit to a one site binding model (, where X is ligand concentration, Y is normalized anisotropy, Bmax is the maximum anisotropy, and KD is the dissociation constant) using GraphPad Prism Software.
Figure 2. RecG binds directly and specifically to the SSB-Ct. (A) Fluorescence anisotropy binding isotherms for RecG binding to SSB-Ct (black), SSB113 (violet), SSBΔF (blue), or SSB IDL (green) peptides. Peptide sequences are listed in parentheses with * representing an N-terminal 6-FAM label. Anisotropy values are normalized to the reading at 0 μM RecG. […] (B–E) ITC analysis of RecG/SSB binding. Thermograms (top) and binding isotherms (bottom) of titrations of (B) full-length SSB, (C) SSB-Ct peptide, (D) SSBΔF or (E) SSBΔF peptide into RecG solutions.
Two models explaining how RecG interacts with SSB have been proposed - RecG could interact with the SSB-Ct ([29]) or RecG could interact with the IDL ([48],[49]). To begin testing each model, we used an equilibrium fluorescence anisotropy assay to measure RecG binding to fluorescently labeled SSB-Ct or IDL peptides (Figure 2). Titration of RecG with the SSB-Ct peptide led to an increase in fluorescence anisotropy, which occurs when protein binding slows the tumbling rate of a labeled peptide ([90]). […] KD values in the low micromolar range are typical for SSB/SIP complexes ([10],[12–14],[19],[23]). […]

In data set [2] the target is T2, RecG DNA helicase, wildtype (E. coli, UniProt P24230 1-693).
T2 construct: RecG DNA helicase, E. coli, expressed from overexpression plasmid pEAW111; No tag is mentioned; also called WT RecG; source: E. coli STL2669/pT7pol26 with pEAW111, purified (ammonium sulfate, DEAE, Source 15Q, Source 15S)
T2 sequence (looked up): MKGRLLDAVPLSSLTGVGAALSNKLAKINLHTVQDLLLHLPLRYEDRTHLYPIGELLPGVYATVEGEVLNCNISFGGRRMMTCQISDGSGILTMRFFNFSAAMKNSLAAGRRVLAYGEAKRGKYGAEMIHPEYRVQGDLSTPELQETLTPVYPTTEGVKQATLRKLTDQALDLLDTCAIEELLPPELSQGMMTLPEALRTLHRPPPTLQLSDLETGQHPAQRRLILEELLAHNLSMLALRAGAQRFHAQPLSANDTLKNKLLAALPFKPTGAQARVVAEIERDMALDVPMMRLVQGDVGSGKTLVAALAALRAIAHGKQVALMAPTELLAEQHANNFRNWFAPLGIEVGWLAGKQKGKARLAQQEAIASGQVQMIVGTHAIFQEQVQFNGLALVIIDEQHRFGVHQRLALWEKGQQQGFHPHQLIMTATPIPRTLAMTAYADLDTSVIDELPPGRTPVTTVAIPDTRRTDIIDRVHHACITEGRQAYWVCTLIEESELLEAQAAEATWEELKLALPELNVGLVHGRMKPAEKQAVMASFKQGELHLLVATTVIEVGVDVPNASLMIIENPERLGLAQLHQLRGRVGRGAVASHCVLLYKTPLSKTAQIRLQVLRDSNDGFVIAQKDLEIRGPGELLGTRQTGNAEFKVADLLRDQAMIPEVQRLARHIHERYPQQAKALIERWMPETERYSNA
Put plainly: ITC; SSB proteins or unlabeled peptides injected into RecG in the cell; 20 mM Tris-HCl pH 8.0, 150 mM NaCl, 10% glycerol, 1 mM EDTA, 1 mM β-mercaptoethanol; 25°C; one-site model; concentrations as monomers. Conditions: both partners purified. In general terms: Isothermal titration calorimetry measures the heat released or taken up as one component is titrated into another.

Data set [3] has as its system SSB. The note with it: S. cerevisiae pJ69-4a; Gal4 BD-RecG (variant) with Gal4 AD-SSB; SD His- and Ade-deficient plates, 30°C, 4–5 days.
Method: SSB, RecG or RecG variants were N-terminally fused to the DNA binding domain (pGBD) or activation domain (pGAD) of the Gal4 transcription factor. Resulting plasmids (Supplementary Table S3) were transformed ([84]) in pairs into Saccharomyces cerevisiae strain pJ69-4a ([85]) and selected for on synthetic dextrose (SD) Leu- and Trp-deficient plates. Transformants were inoculated into SD Leu- and Trp-deficient liquid medium and grown at 30°C overnight rotating. Saturated overnight cultures were diluted to an OD600 nm of 1.0 in 2% glucose and serially diluted 10-fold in 2% glucose. Dilutions were spotted (10 μl) onto SD His- and Ade-deficient plates and grown at 30°C for 4–5 days. Plates were imaged on a Fotodyne gel doc. Site-directed mutagenesis of RecG in pGBD was performed by in vivo assembly mutagenesis ([78]) of pEAW1156.
A fourth charge-reversal variant of R484 was also tested as a control to determine whether an electrostatic change that is near, but not in, the putative SSB binding site would alter RecG binding to SSB. A yeast two-hybrid assay was used as an initial method to screen several RecG variants for interaction with SSB. In the two-hybrid assay, yeast were transformed with plasmids encoding SSB and RecG fused to the Gal4 activation and binding domains, respectively, and the RecG/SSB interaction was assessed by selecting for growth on selective medium plates. […]
The target in data set [4] is ΦX174 RF I DNA. Put plainly: DNA-dependent ATP hydrolysis assay (coupled spectrophotometric) of RecG proteins. The data set is classed as biochemical. Conditions: 150 nM RecG, 3 mM ATP, 37°C, pH 7.6, triplicate. As to the method: ATPase rates for wildtype and variant RecG proteins were determined using a coupled spectrophotometric assay ([86]). ATP hydrolysis reactions were conducted with 150 nM RecG in 1 × RecA buffer, supplemented with 1 mM DTT, 2.2 mM phosphor(enol)pyruvate, 10 units/ml pyruvate kinase, 10 units/ml lactate dehydrogenase, 2 mM NADH, and 3 mM ATP with varying concentrations of ΦX174 RF I (New England Biolabs) DNA at 37°C. DNA concentrations are represented in μM nucleotides (nt). A380 nm measured the conversion of NADH into NAD^+. Measurements were taken every 20–40 s on a Cary UV-Vis spectrophotometer. ATP hydrolysis rates were calculated by dividing the slope of A380 nm measurements over time over the linear region by ε380 nm = 1.21 mM^−1 cm^−1 for NADH and the cell path length (1 cm).
To more rigorously and quantitatively test the RecG HD2/SSB-Ct binding model, a RecG variant in which one of the putative SSB-binding residues is altered (RecG R474E) was purified and tested for binding to the SSB-Ct peptide and to full-length SSB in vitro. This variant was chosen because of the predicted interaction of the R474 side chain with the alpha-carboxyl group of SSB-Ct C-terminal Phe (Figure 3A). Analogous interactions have proven to be essential points of contact in other SIPs ([10],[19]). […] ATPase activity of RecG R474E was indistinguishable from that of wildtype RecG, with values for both maximal ATPase rates and the DNA concentrations required for 50% stimulation (KDNA) within error between the two proteins (Figure 4B and Table 2). Thus, we concluded that the RecG R474E variant was properly folded. To further examine the effect of the R474E sequence change, we also used ITC to measure RecG R474E binding to either the SSB-Ct or to full-length SSB. Binding was not detected in either titration (Figure 4C).
Figure 4.
We first measured binding to the SSB-Ct. […] RecG R95A binding to the SSB-Ct was expected since our experiments had shown that the peptide bound at a site in the RecG HD2 domain. […] This difference could be due to compromised DNA binding in the R95A variant. Arg95 is located on the DNA binding surface of the RecG wedge domain ([74]), and changing adjacent residues Phe96 or Phe97 to Ala results in drastic reductions in DNA binding and unwinding activity ([91]).

Data set [5] has as its system SSB. The note with it: cited from earlier work. The source says:
In contra ... || To directly test whether the proposed RecG wedge domain IDL binding site is important for interaction with SSB, we purified a RecG R95A variant and measured its activity in vitro. […] We first measured binding to the SSB-Ct.

Where two headings read alike, the source gives them in different places. Where a SMILES comes first, the peptide text is derived from it. Where no end group is shown, it is not given here. The star is where a group is joined. 6FAM = O=C1OC2(c3ccc(O)cc3Oc3cc(O)ccc32)c2cc(C(=O)*)ccc21 Bounds are passed on as bounds.

Broadly, the stoichiometry N is a count of units in the complex or per binding partner.

For H-WMDFDDDIP [SSBΔF peptide], the Kd in data set [1] (read-out: FP K D, WT RecG, fluorescence anisotropy, 10 nM N-terminal 6-FAM peptide, 0.2 M potassium glutamate, 25 mM Tris-acetate pH 7.6, 10 mM magnesium acetate, 30 min at room temperature, read at 25°C, one site fit, triplicate) was above 30 µM.

With `CC[C@H](C)[C@H](NC(=O)[C@H](CC(=O)O)NC(=O)[C@H](CC(=O)O)NC(=O)[C@H](CC(=O)O)NC(=O)[C@H](Cc1ccccc1)NC(=O)[C@H](CC(=O)O)NC(=O)[C@H](CCSC)NC(=O)[C@H](Cc1c[nH]c2ccccc12)NC(=O)c1ccc2c(c1)C1(OC2=O)c2ccc(O)cc2Oc2cc(O)ccc21)C(=O)N[C@@H](CO)C(=O)N[C@@H](Cc1ccccc1)C(=O)O` [SSB113 peptide] (6FAM-WMDFDDDISF-OH), the Kd in data set [1] is 23 ± 3.1 µM.

B1: SSB-Ct peptide, unlabeled (peptide)
peptide: WMDFDDDIPF
notes: N-terminal tryptophan residue added for quantification; C-terminal tip of SSB, E. coli; source: synthetic peptide (Genscript)
Consider B1, for which, in data set [2], the Kd is 3.9 ± 0.8 µM, the dH was -4 ± 0.5 kcal/mol and the “stoichiometry N” value is 0.92 ± 0.08.

B2: RecG R474E: RecG Arg474Glu charge-reversal variant, HD2 domain (protein)
chain: MKGRLLDAVPLSSLTGVGAALSNKLAKINLHTVQDLLLHLPLRYEDRTHLYPIGELLPGVYATVEGEVLNCNISFGGRRMMTCQISDGSGILTMRFFNFSAAMKNSLAAGRRVLAYGEAKRGKYGAEMIHPEYRVQGDLSTPELQETLTPVYPTTEGVKQATLRKLTDQALDLLDTCAIEELLPPELSQGMMTLPEALRTLHRPPPTLQLSDLETGQHPAQRRLILEELLAHNLSMLALRAGAQRFHAQPLSANDTLKNKLLAALPFKPTGAQARVVAEIERDMALDVPMMRLVQGDVGSGKTLVAALAALRAIAHGKQVALMAPTELLAEQHANNFRNWFAPLGIEVGWLAGKQKGKARLAQQEAIASGQVQMIVGTHAIFQEQVQFNGLALVIIDEQHRFGVHQRLALWEKGQQQGFHPHQLIMTATPIPRTLAMTAYADLDTSVIDELPPGRTPVTTVAIPDTRRTDIIDEVHHACITEGRQAYWVCTLIEESELLEAQAAEATWEELKLALPELNVGLVHGRMKPAEKQAVMASFKQGELHLLVATTVIEVGVDVPNASLMIIENPERLGLAQLHQLRGRVGRGAVASHCVLLYKTPLSKTAQIRLQVLRDSNDGFVIAQKDLEIRGPGELLGTRQTGNAEFKVADLLRDQAMIPEVQRLARHIHERYPQQAKALIERWMPETERYSNA
modifications: left off: Gal4 DNA-binding domain, N-terminal, kept
On to B2, for which the “yeast two-hybrid growth on selective medium” value in data set [3] is “failed to grow”. In data set [4], the “K DNA (DNA concentration required for 50% stimulation of ATPase)” value turned out to be 39.9 ± 2.9 μM nt and the “V max of ATP hydrolysis” value was found to be 363 ± 13 µM/min.

B3: RecG R95A: RecG wedge domain variant (protein)
chain: MKGRLLDAVPLSSLTGVGAALSNKLAKINLHTVQDLLLHLPLRYEDRTHLYPIGELLPGVYATVEGEVLNCNISFGGRRMMTCQISDGSGILTMAFFNFSAAMKNSLAAGRRVLAYGEAKRGKYGAEMIHPEYRVQGDLSTPELQETLTPVYPTTEGVKQATLRKLTDQALDLLDTCAIEELLPPELSQGMMTLPEALRTLHRPPPTLQLSDLETGQHPAQRRLILEELLAHNLSMLALRAGAQRFHAQPLSANDTLKNKLLAALPFKPTGAQARVVAEIERDMALDVPMMRLVQGDVGSGKTLVAALAALRAIAHGKQVALMAPTELLAEQHANNFRNWFAPLGIEVGWLAGKQKGKARLAQQEAIASGQVQMIVGTHAIFQEQVQFNGLALVIIDEQHRFGVHQRLALWEKGQQQGFHPHQLIMTATPIPRTLAMTAYADLDTSVIDELPPGRTPVTTVAIPDTRRTDIIDRVHHACITEGRQAYWVCTLIEESELLEAQAAEATWEELKLALPELNVGLVHGRMKPAEKQAVMASFKQGELHLLVATTVIEVGVDVPNASLMIIENPERLGLAQLHQLRGRVGRGAVASHCVLLYKTPLSKTAQIRLQVLRDSNDGFVIAQKDLEIRGPGELLGTRQTGNAEFKVADLLRDQAMIPEVQRLARHIHERYPQQAKALIERWMPETERYSNA
modifications: left off: Gal4 DNA-binding domain, N-terminal, kept
notes: RecG wedge domain variant
Regarding B3, the “yeast two-hybrid growth on selective medium” value in data set [3] is recorded as “grew on the selective medium”. Also, the “reduction in co-purification with SSB” value in data set [5] (previous study) is reported as 24 fold. For the same molecule, in data set [5] (prior results), the “binding to SSB in co-purification assay, in words” value is listed as “severely reduced binding to SSB”. Also, in data set [4], the “K DNA (DNA concentration required for 50% stimulation of ATPase)” value is reported as 18.5 ± 4.9 μM nt and the “V max of ATP hydrolysis” value stood at 127 ± 11 µM/min.

These data come from paper PMC10164576, “Interaction with the carboxy-terminal tip of SSB is critical for RecG function in E. coli” (Nucleic Acids Research, 2023).
